Literature values as cited in PMC7390727.
Like-named read-outs stand apart in the source and are kept apart here.

Legend:
[1] = target: chemoreceptor C-terminal pentapeptide (Salmonella typhimurium)
[2] = target: chemoreceptor C-terminal pentapeptide (Salmonella typhimurium); remark: listed apart in the source

CheR (from UniProt P07801)
Kd [1]: 2 µM

CheB (from UniProt P04042)
Kd [2]: 160 µM
